Laboratory results: patent US20240002479A1 (REGENTS OF THE UNIVERSITY OF MICHIGAN, published 2024)

Key:
[1] = target: T1, JEV NS1 (Japanese encephalitis virus NS1) (Japanese encephalitis virus, UniProt P0DOH7 795-1146); experiment: ELISA, 2B7 titrated on JEV NS1, OD450nm
T1 sequence: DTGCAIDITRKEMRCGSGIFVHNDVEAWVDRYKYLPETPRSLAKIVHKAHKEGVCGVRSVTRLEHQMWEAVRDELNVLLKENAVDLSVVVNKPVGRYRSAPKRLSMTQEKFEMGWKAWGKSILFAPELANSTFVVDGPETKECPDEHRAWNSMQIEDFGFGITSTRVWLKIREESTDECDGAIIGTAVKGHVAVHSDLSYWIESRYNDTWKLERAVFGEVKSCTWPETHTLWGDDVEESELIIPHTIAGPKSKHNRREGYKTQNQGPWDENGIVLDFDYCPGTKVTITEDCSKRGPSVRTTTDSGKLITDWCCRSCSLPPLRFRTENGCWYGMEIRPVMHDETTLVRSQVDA

[2] = target: T2, SLEV NS1 (Saint Louis encephalitis virus NS1) (Saint Louis encephalitis virus, UniProt P09732 790-1141); experiment: ELISA, 2B7 titrated on SLEV NS1, OD450nm
T2 sequence: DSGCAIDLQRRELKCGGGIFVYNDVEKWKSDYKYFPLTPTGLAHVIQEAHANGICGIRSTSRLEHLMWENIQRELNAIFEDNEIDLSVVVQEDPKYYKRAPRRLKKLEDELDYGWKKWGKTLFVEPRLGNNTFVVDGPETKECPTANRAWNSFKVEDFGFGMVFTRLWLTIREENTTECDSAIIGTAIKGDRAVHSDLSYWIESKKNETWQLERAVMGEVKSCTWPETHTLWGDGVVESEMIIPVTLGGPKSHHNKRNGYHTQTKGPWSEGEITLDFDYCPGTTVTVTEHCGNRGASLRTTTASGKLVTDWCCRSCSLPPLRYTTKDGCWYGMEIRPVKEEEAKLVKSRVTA

[3] = target: T3, USUV NS1 (Usutu virus NS1) (Usutu virus, UniProt Q5WPU5 794-1145); experiment: ELISA, 2B7 titrated on USUV NS1, OD450nm
T3 chain: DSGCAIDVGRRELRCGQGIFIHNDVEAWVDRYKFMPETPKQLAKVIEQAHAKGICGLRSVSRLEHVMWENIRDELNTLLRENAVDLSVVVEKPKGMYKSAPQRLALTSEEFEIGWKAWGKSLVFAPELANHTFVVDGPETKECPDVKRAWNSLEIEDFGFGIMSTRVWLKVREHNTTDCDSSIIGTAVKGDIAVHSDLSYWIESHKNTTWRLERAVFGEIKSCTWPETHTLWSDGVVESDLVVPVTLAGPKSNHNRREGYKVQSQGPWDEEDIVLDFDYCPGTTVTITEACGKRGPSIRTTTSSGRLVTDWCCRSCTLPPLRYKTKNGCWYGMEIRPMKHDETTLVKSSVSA

[4] = target: T4, WSLV NS1 (Wesselsbron virus NS1) (Wesselsbron virus, UniProt C5H431 771-1123); experiment: ELISA, 2B7 titrated on WSLV NS1, OD450nm
T4 sequence: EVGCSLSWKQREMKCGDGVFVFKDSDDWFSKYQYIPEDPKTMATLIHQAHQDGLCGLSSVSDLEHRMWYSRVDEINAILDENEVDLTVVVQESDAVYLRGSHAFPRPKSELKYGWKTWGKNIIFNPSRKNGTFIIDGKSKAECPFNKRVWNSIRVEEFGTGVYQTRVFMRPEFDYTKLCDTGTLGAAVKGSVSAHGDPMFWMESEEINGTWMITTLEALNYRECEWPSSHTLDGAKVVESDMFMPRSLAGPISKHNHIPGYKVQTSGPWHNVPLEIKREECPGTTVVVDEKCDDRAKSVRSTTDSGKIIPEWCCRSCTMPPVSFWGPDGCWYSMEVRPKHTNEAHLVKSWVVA

DENV1 NS1 [5] = target: T5, DENV1 NS1 (Dengue virus 1, UniProt P17763 776-1127); experiment: ELISA, 2B7 titrated on DENV1 NS1, OD450nm
T5 construct: also called dengue virus serotype 1 NS1
T5 chain: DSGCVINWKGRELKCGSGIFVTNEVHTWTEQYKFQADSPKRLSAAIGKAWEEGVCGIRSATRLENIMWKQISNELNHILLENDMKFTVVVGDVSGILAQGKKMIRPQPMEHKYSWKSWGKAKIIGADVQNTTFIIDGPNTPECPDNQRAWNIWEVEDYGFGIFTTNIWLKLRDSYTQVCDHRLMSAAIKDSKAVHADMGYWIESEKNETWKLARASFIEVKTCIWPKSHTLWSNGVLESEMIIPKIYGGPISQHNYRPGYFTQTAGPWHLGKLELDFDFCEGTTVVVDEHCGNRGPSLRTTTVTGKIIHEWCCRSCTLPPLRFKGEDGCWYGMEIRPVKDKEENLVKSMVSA

DENV3 NS1 = target: T6, DENV3 NS1 (Dengue virus 3, UniProt Q6YMS4 774-1125); experiment: ELISA, 2B7 titrated on DENV3 NS1, OD450nm
T6 sequence: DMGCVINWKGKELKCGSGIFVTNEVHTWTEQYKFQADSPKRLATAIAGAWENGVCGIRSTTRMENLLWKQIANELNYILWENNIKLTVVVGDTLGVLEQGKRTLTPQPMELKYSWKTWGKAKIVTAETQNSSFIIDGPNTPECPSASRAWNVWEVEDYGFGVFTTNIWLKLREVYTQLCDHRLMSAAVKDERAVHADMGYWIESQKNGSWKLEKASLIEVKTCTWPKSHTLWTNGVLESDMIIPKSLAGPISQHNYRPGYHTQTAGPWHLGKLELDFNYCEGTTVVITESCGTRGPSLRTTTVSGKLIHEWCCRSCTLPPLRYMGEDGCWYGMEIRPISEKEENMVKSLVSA

DENV4 NS1 = target: T7, DENV4 NS1 (Dengue virus 4, UniProt P09866 775-1126); experiment: ELISA, 2B7 titrated on DENV4 NS1, OD450nm
T7 sequence: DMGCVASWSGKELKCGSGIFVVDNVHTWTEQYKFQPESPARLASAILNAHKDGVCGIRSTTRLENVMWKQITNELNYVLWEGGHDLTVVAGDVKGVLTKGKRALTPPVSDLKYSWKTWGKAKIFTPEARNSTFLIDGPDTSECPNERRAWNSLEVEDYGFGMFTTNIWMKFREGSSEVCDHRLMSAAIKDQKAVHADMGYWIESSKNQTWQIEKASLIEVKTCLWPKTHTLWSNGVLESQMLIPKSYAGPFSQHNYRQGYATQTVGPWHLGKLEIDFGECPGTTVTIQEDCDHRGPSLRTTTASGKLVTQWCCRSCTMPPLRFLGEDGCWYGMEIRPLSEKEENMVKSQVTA

[6] = target: T8, recombinant NS1 wing domain (residues 38-151) (Dengue virus 2, UniProt P07564 813-926); experiment: direct ELISA on plates coated with recombinant NS1 domains, OD 405 nm
T8 sequence: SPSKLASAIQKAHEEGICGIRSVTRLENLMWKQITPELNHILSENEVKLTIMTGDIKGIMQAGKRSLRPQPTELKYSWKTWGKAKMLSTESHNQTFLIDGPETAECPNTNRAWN

DENV1 NS1 [7] = target: T5, DENV1 NS1; experiment: crystal structure 3.3 Å
[8] = target: T8, recombinant NS1 wing domain (residues …); experiment: BLI, domains on anti-His tips

B1: anti-DENV NS1 IgG2b mouse monoclonal antibody (mAb) 2B7 (antibody, V domains shown)
VH: EVQLQQSGPELVKPGASVKMSCKASGCTLTNCFMHWMKQKPGQDLEWIGYINPYNDMTKYSENFKGKATLTSDKSSSTAFMELSSLTSEDSAVYYCARGYLLRTGCFDYWGQGTTLTVSS
VL: NIVLTQSPASLAVSLGQRATISCRASESVDSYGYSFMHWYQQKPGQPPKVLIYLASNLESGVPARFSGSGSRTDFTLTIDPVEADDAATYYCQQNNENPLTFGAGTKLELKR
Q: Does B1 bind [1]?
A: Result: binds

Q: Does B1 bind [2]?
A: Result: binds

Q: Does B1 bind [3]?
A: Result: binds

Q: Does B1 bind [4]?
A: Result: binds

Q: Does B1 bind (DENV1 NS1 [5])?
A: Result: binds

Q: Does B1 bind (DENV3 NS1)?
A: Result: binds

Q: Does B1 bind (DENV4 NS1)?
A: Result: binds

Q: Does B1 bind [6]?
A: Result: no binding

B2: 2B7 Fab (Fab, V domains shown)
VH: EVQLQQSGPELVKPGASVKMSCKASGCTLTNCFMHWMKQKPGQDLEWIGYINPYNDMTKYSENFKGKATLTSDKSSSTAFMELSSLTSEDSAVYYCARGYLLRTGCFDYWGQGTTLTVSS
VL: NIVLTQSPASLAVSLGQRATISCRASESVDSYGYSFMHWYQQKPGQPPKVLIYLASNLESGVPARFSGSGSRTDFTLTIDPVEADDAATYYCQQNNENPLTFGAGTKLELK
Q: Does B2 bind (DENV1 NS1 [7])?
A: Result: binds

Q: Does B2 bind [8]?
A: Result: no binding
